This note sets out measurements from publication PMC8055535.

As usually defined, the stoichiometry N is the number of molecules, sites or subunits per partner or assembly.

The target in the experiment is light-dependent protochlorophyllide oxidoreductase (LPOR), Zea mays (Zea mays (endogenous in maize etioplasts)). Briefly: cryo-EM structure; electron cryo-tomography and subtomogram averaging of membrane tubes from ruptured maize etioplasts, native membranes; low-salt pH 8.0 buffer with 150 mM trehalose in place of sorbitol; tube averages at 18.2 and 18.1 Å, sub-boxes of dimers at 9 Å.

For the substance “light-dependent protochlorophyllide oxidoreductase (LPOR), Zea mays (enzyme)”, the stoichiometry N worked out at 2.
